Results reported in patent US10143747B2, “Breast cancer therapeutics” (IMBA—INSTITUT FÜR MOLEKULARE BIOTECHNOLOGIE GMBH, priority 2010, dated 2018).

Test system: human SKBR3 breast cancer cells
Experiment: Soft-Agar Colony Formation Assay (anchorage-independent growth)
Format: cell-based
Conditions: OPG 1 μg/ml with RANKL 1 μg/ml, 18 days in culture
Description: a, Western blotting for phosphorylated (P) IKKα, total IKKα, phosphorylated (P) p65 NFκB, total p65 NFκB, phosphorylated (P) IκBα, and total IκBα in isolated primary mouse mammary gland epithelial cells (MECs) in response to RANKL stimulation (1 μg/ml). β-actin is shown as loading control. b, Western blotting for IKKα, IKKβ, IKKγ, phosphorylated (P) p65 NFκB, total p65 NFκB, phosphorylated (P) IκBα, and total IκBα in pooled late stage mammary adenocarconimas (n=4 for each lane) that developed in control, RANK^Δmam and IKKΔ^Δmam females. β-actin is shown as loading control c, Expression of RANK, CyclinD1, and p21 mRNA in late stage mammary adenocacinomas that developed in control, RANK^Δmam, and IKKα^Δmam females. Expression was determined by qRT-PCR. Data are mean values+/−sem. n=4 per group. d, Soft-Agar Colony Formation Assay. Growth of human SKBR3 breast cancer cells in soft agar in response to stimulation with RANKL (1 μg/ml) or EGF (100 ng/ml). Anchorage-independent, macroscopic colonies formed after 18 days in culture with RANKL, which was prevented by the decoy receptor OPG (1 μg/ml). […] Apoptosis was detected by immunostaining for active Caspase 3. f, Apoptotic nuclei of epithelial cells (arrows) are shown for representative mammary gland sections. Magnifications×40. g, Quantification of mammary epithelial apoptosis. A minimum of 5000 nuclei was counted for each mouse. […]

B1: OPG: secreted decoy receptor of RANKL, used as RANKL inhibitor (1 μg/ml) (protein, UniProt O00300 22-401, looked up)
Tumor necrosis factor …: ETFPPKYLHYDEETSHQLLCDKCPPGTYLKQHCTAKWKTVCAPCPDHYYTDSWHTSDECLYCSPVCKELQYVKQECNRTHNRVCECKEGRYLEIEFCLKHRSCPPGFGVVQAGTPERNTVCKRCPDGFFSNETSSKAPCRKHTNCSVFGLLLTQKGNATHDNICSGNSESTQKCGIDVTLCEEAFFRFAVPTKFTPNWLSVLVDNLPGTKVNAESVERIKRQHSSQEQTFQLLKLWKHQNKDQDIVKKIIQDIDLCENSVQRHIGHANLTFEQLRSLMESLPGKKVGAEDIEKTIKACKPSDQILKLLSLWRIKNGDQDTLKGLMHALKHSKTYHFPKTVTQSLKKTIRFLHSFTMYKLYQKLFLEMIGNQVQSVKISCL
Q: Which “effect on RANKL-induced anchorage-independent macroscopic colonies” value does the source give for B1 here?
A: prevented
